Assay results as given in the RNAGym collection of RNA variant scans (doi:10.7554/elife.80360).

B1: Twister Ribozyme (parent)
chain: AACACUGCCAAUGCCGGUCCCAAGCCCGGAUAAAAGUGGAGGGGGCGG

Variants of: B1
Assay: self-cleavage, relative activity (ratio to wild type); higher = more cleavage; co-transcriptional

Variant	self-cleavage
G13A C15G	0.118
G13A C15U	0.579
G13A G48U	0.705
G13A G48C	0.91
A11U G38C	1.08
U12G G28C	0.344
A11U A30C	0.862
U12C G44C	0.932
G13A G36A	0.162
G13A G36U	0.139
U12C C20A	0.128
U12C C20U	0.695
U12A A34C	0.36
U12G A22U	0.706
U12G A22C	1.13
A11G G16A	0.627
A11U G41A	0.747
A11U G41C	0.374
A11U C14G	0.203
A11G C25G	0.437
A11U U37A	1.01
A11U U37G	0.953
A11U U37C	0.583
A11U C25A	0.139

Variant	self-cleavage
A11U C25U	1.03
A11G A32G	0.882
A11G A32C	0.925
A11G G48A	0.884
A11G G48C	1.09
U12C A40G	0.107
U12C A40C	0.177
U12C A40U	0.144
U12G C20G	0.249
U12G C20U	0.725
U12A G28C	1.02
U12A G28U	1.06
U12G U18A	0.46
U12G U18C	0.437
U12C G38U	0.781
U12G G17C	0.0934
U12G G17A	0.577
U12C G16C	0.482
U12A C20G	0.16
U12A C20A	0.181
A11U G29U	1.04
A11U G29C	1.02
A11G C27G	0.0637
U12A C14G	0.0875

Variant	self-cleavage
U12A C14A	0.997
U12G A34U	0.701
U12G A34G	0.608
U12C U37C	0.624
U12C U31A	0.78
U12C U31G	0.954
A11C U31C	0.876
U12G G38A	0.771
A11G G36U	0.431
A11G A23G	0.447
A11G A23C	0.422
U12C G41C	0.264
U12C G41A	0.577
A11G A40G	0.11
A11G A30C	0.861
A11G C26G	0.234
A11G C26U	0.466
G13A A30G	0.742
A11U G24U	0.105
A11U G24A	0.108
U12C G28U	0.88
U12A G43C	0.255
G13A A22U	0.424
G13A A22C	1.05

Variant	self-cleavage
U12C A22G	0.307
A11U U18G	0.0666
U12A G42C	0.601
U12A G42A	0.463
U12A G42U	0.427
U12G G47C	0.528
A11G G28U	0.725
A11G G28A	0.84
A11G G28C	0.801
A11U G39C	0.149
A11U G39U	0.279
U12A A22C	1.08
U12A U37C	0.727
U12A U37A	0.918
U12C G47A	0.785
A11G C14G	0.133
A11G C14A	0.941
A11G C14U	0.943
U12C G43C	0.145
U12G A35C	0.89
U12G A35U	0.848
U12A G24C	0.097
U12A G24U	0.172
A11U C27A	0.66

Variant	self-cleavage
A11U C27U	0.894
A11U C27G	0.104
A11U G13C	0.592
A11G C20G	0.197
A11G C20U	0.797
A11G C20A	0.117
G13A C46U	0.931
A11G G47A	0.812
U12A C21U	0.164
U12A C21G	0.122
U12A A23C	0.394
U12A A23G	0.768
U12A A33U	1.14
U12C C27U	0.951
G13A C26G	0.0899
G13A C26A	0.095
U12G C25A	0.256
U12G C25U	0.675
U12A U31G	0.961
U12A U31A	0.679
U12A U31C	1.13
U12C A23U	0.554
U12C A23C	0.234
U12G A30C	0.969

Variant	self-cleavage
G13A A40G	0.185
U12A C15A	0.901
U12A C15G	0.17
G13A A32C	0.689
A11C U18A	0.159
A11C U18G	0.0822
A11C U18C	0.154
A11U A32U	1.1
A11U A32G	0.911
U12A C25G	0.423
G13A G24A	0.0967
G13A G24U	0.13
G13A G24C	0.129
G13A U31C	0.962
A11U G43C	0.234
U12A C26A	0.763
U12A C26U	0.563
U12G G13C	1.05
U12G G13A	1.14
U12G G13U	0.836
A11G U12C	1.13
A11U U12C	0.849
A11U U12A	0.95
A11U C15A	0.62

Variant	self-cleavage
A11U C15G	0.0907
U12A A35U	1.06
G13A A34U	0.64
A11U G47A	0.937
G13A G38C	0.78
G13A G38A	0.581
U12A C27A	0.744
U12A C27U	0.945
A11U A34G	1.07
A11U A34U	0.974
A11G G24U	0.143
A11U C26U	0.69
U12A G36C	0.693
U12G C46A	0.706
U12G C46U	0.866
A11G G41C	0.313
U12G G41A	0.658
U12G G41C	0.315
U12G G41U	0.783
U12G A32U	0.958
U12G A32G	0.914
U12G A32C	0.9
G13A G42U	0.191
G13A G42C	0.34

Variant	self-cleavage
U12C G45A	0.788
U12C C25A	0.122
U12C C25U	0.736
G13A G45A	0.724
G13A G45U	0.539
A11G G39A	0.477
A11G G39C	0.119
A11G C21G	0.0655
A11G C21U	0.12
A11G C21A	0.107
U12G A23U	0.566
U12G A23C	0.401
A11G U37G	0.494
A11G U37C	0.529
U12C A30U	1.04
U12C A30G	0.712
A11G A35G	0.826
A11G A35U	0.941
A11G G44C	0.784
G13A A33C	0.825
G13A A33G	0.943
U12G C15U	0.649
A11G G29A	0.772
A11G G29U	0.762

Variant	self-cleavage
U12A U18C	0.623
U12A U18A	0.643
A11G U31C	0.736
A11G U31A	0.348
A11G U31G	1.1
U12C C26G	0.179
U12C C15U	1.09
U12A C46U	0.977
A11U G42U	0.33
A11U G42C	0.623
A11U G42A	0.557
A11G A22C	0.904
A11G A22U	0.66
G13A G43A	0.14
A11G A33C	0.836
A11G A33G	0.84
A11U A22C	1.17
A11U A22G	0.399
G13A C19U	0.284
G13A C19A	0.113
G13A C27U	0.482
G13A C27A	0.0875
G13A A23C	0.093
A11U A35C	0.997

Variant	self-cleavage
A11U A35U	1.12
U12A G13C	0.811
U12A G13A	0.89
G13A U18A	0.0831
U12C C46G	0.705
U12C C46A	0.903
A11U U31A	0.918
A11U U31G	0.893
U12G G48U	0.789
U12G G39U	0.247
U12G G39A	0.477
U12G G39C	0.137
A11U G44A	0.977
A11U C20A	0.178
G13A G29U	0.598
G13A G29A	0.653
G13A G29C	0.692
U12C G24A	0.0718
A11G C15U	0.912
A11G C15G	0.0492
G13A C21U	0.0803
G13A C21G	0.105
A11U G16C	0.532
A11U G16A	0.804

Variant	self-cleavage
A11G G45C	0.343
A11U A23U	0.765
A11U A23C	0.241
U12A G38U	1.01
A11G C19A	0.221
U12G U37C	0.593
U12G U37G	0.653
A11U C21A	0.114
A11U C21G	0.0514
U12C C21A	0.124
U12G C26U	0.407
U12G C26G	0.451
U12G G16C	0.753
U12G A33C	0.685
U12C G17U	0.291
U12C G17C	0.0944
A11G C46U	0.943
G13A G17A	0.121
U12A G45A	1.09
U12A G45C	0.643
G13A G44A	1.04
G13A G44U	0.845
G13A G44C	0.746
A11U G17C	0.111

Variant	self-cleavage
A11U G17A	0.497
A11U G17U	0.264
A11G G38U	0.613
A11G G38C	0.683
A11G G38A	0.824
U12C C14U	1.06
U12G G45C	0.288
U12G G45U	0.419
U12A C19A	0.342
A11U G45A	1.13
U12A A32G	1.12
U12A A32C	1.15
U12A G16C	0.688
G13A A35C	1.02
G13A A35U	0.978
G13A A35G	0.203
G13A G47C	0.272
G13A G47A	0.457
U12C G29C	0.877
U12C G29U	0.746
U12G G42U	0.531
U12G G42A	0.494
U12G C19U	0.998
U12A A30G	1.01

Variant	self-cleavage
G13A G16U	0.168
A11G A34U	0.913
A11G A34C	0.353
G13A C14A	0.685
U12C U18G	0.0285
G13A	1.05
A11U G36U	0.849
A11U G36C	0.573
A11G G13U	0.705
G13A G39C	0.168
A11U G48A	0.951
A11U G48U	1.12
A11U G48C	1.12
U12A G41U	0.772
U12G G43C	0.274
U12G G43U	0.454
A11U G28A	1.02
A11U G28U	0.968
U12G U31C	0.907
U12G U31A	0.746
U12G U31G	0.834
A11G G43C	0.169
A11G G43A	0.234
A11U A33G	0.839

Variant	self-cleavage
A11U A33C	0.909
A11G U18A	0.61
A11G U18C	0.382
A11U C46G	0.978
A11U C46U	0.914
U12A G17C	0.114
U12G G24U	0.167
U12C A35G	0.837
U12C A35U	0.91
U12C G36A	0.679
U12G G29U	0.823
U12C A34C	0.382
U12A G29U	1.13
U12A G29A	1.11
U12A A40C	0.291
A11U A40C	0.161
A11U A40U	0.142
U12C C19A	0.314
U12C C19G	0.428
U12G A40U	0.279
U12G A40C	0.261
U12A G47C	0.751
